Source: US20250026792A1, “SELF-ASSEMBLING PEPTIDES WITH HYALURONIC ACID BINDING DOMAINS AND METHODS OF USE THEREOF” (Northwestern University, priority 2022, published 2025)
The star is where a group is joined. Biotin = O=C1N[C@H]2[C@H](CS[C@H]2CCCCC(=O)*)N1

T1: elastin (Bos taurus, UniProt P04985)
T1 construct: purchased Sigma-Aldrich
T1 sequence (P04985 27-747): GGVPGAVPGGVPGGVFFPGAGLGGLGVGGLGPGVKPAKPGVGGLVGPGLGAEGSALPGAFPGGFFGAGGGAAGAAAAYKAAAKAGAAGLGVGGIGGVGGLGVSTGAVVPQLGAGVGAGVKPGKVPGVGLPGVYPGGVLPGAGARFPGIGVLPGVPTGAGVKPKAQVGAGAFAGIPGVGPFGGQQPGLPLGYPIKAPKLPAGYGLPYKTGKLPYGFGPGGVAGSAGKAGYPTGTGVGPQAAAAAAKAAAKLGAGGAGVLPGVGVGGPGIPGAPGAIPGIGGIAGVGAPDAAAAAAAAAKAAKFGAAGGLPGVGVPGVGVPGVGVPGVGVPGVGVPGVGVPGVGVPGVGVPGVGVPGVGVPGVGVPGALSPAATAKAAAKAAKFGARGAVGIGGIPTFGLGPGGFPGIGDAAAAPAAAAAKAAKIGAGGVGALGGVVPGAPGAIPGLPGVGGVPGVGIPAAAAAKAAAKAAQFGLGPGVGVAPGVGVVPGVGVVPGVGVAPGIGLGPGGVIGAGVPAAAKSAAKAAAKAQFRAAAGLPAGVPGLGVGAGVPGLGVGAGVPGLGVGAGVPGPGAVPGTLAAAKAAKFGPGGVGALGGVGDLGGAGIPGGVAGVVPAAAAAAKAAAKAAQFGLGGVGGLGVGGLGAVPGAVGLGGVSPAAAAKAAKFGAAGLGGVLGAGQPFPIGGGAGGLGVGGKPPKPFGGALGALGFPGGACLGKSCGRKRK

T2: elastin (bovine) (bovine, UniProt P04985 27-747, limits assumed)
T2 construct: Coated and dried on plates at 10 ug/cm2
T2 sequence (looked up): T1 sequence (P04985 27-747)

T3: collagen type III (human) (human, UniProt P02461 154-1221)
T3 construct: III (human)'; Coated and dried on plates at 10 ug/cm2; also called collagen III
T3 sequence (looked up): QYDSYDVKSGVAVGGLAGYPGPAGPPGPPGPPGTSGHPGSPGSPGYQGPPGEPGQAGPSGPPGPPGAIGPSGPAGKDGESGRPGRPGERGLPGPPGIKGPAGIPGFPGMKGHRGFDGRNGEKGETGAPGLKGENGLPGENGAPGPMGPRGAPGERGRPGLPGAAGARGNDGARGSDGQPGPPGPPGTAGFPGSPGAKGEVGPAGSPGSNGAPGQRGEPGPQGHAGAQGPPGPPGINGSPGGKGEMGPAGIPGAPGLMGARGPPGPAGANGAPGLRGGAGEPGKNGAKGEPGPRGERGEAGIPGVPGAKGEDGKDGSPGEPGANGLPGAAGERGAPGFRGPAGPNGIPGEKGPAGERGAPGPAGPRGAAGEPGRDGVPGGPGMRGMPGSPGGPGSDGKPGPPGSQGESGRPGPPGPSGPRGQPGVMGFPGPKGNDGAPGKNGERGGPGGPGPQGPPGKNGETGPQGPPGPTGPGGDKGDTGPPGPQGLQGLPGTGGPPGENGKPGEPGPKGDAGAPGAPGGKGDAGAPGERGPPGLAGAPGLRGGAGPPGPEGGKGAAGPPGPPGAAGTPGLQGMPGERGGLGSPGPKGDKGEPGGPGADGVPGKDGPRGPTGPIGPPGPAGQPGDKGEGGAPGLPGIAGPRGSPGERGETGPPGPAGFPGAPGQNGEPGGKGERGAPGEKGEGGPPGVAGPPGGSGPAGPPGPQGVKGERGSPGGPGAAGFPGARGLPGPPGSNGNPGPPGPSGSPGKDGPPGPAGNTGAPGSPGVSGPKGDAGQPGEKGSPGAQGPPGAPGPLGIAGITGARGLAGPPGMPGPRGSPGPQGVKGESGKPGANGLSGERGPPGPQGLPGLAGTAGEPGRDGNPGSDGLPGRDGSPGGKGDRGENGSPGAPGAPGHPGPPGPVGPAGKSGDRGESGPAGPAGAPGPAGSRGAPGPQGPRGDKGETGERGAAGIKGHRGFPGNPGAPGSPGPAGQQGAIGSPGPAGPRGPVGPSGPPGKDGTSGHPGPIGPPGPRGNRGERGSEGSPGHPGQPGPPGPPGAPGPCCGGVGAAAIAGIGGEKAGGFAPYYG

B1: Peptide 17x-3 (peptide)
peptide: Biotin-KTKATVLIKNKQKSKNALKQKIVLLSK-OH
SMILES: CC[C@H](C)[C@H](NC(=O)[C@H](CC(C)C)NC(=O)[C@@H](NC(=O)[C@@H](NC(=O)[C@H](C)NC(=O)[C@H](CCCCN)NC(=O)[C@@H](NC(=O)[C@H](CCCCN)NC(=O)CCCC[C@@H]1SC[C@@H]2NC(=O)N[C@@H]21)[C@@H](C)O)[C@@H](C)O)C(C)C)C(=O)N[C@@H](CCCCN)C(=O)N[C@@H](CC(N)=O)C(=O)N[C@@H](CCCCN)C(=O)N[C@@H](CCC(N)=O)C(=O)N[C@@H](CCCCN)C(=O)N[C@@H](CO)C(=O)N[C@@H](CCCCN)C(=O)N[C@@H](CC(N)=O)C(=O)N[C@@H](C)C(=O)N[C@@H](CC(C)C)C(=O)N[C@@H](CCCCN)C(=O)N[C@@H](CCC(N)=O)C(=O)N[C@@H](CCCCN)C(=O)N[C@H](C(=O)N[C@H](C(=O)N[C@@H](CC(C)C)C(=O)N[C@@H](CC(C)C)C(=O)N[C@@H](CO)C(=O)N[C@@H](CCCCN)C(=O)O)C(C)C)[C@@H](C)CC
notes: De novo designed 27-residue peptide, custom synthesized; the biotinylated peptides are used in every experiment; Self-assembles at higher concentrations
B2: Peptide BHP3 (peptide)
peptide: Biotin-TQLRNKYTFLARARNALAVRTKQNIKS-OH
SMILES: CC[C@H](C)[C@H](NC(=O)[C@H](CC(N)=O)NC(=O)[C@H](CCC(N)=O)NC(=O)[C@H](CCCCN)NC(=O)[C@@H](NC(=O)[C@H](CCCNC(=N)N)NC(=O)[C@@H](NC(=O)[C@H](C)NC(=O)[C@H](CC(C)C)NC(=O)[C@H](C)NC(=O)[C@H](CC(N)=O)NC(=O)[C@H](CCCNC(=N)N)NC(=O)[C@H](C)NC(=O)[C@H](CCCNC(=N)N)NC(=O)[C@H](C)NC(=O)[C@H](CC(C)C)NC(=O)[C@H](Cc1ccccc1)NC(=O)[C@@H](NC(=O)[C@H](Cc1ccc(O)cc1)NC(=O)[C@H](CCCCN)NC(=O)[C@H](CC(N)=O)NC(=O)[C@H](CCCNC(=N)N)NC(=O)[C@H](CC(C)C)NC(=O)[C@H](CCC(N)=O)NC(=O)[C@@H](NC(=O)CCCC[C@@H]1SC[C@@H]2NC(=O)N[C@@H]21)[C@@H](C)O)[C@@H](C)O)C(C)C)[C@@H](C)O)C(=O)N[C@@H](CCCCN)C(=O)N[C@@H](CO)C(=O)O
notes: Designed from the 42 residue peptide BH-P; biotinylated synthetic peptide

Key:
[1] = target: T4, collagen type I (Rattus norvegicus, UniProt P02454+P02466); experiment: ECM specificity binding test, collagen type I coating; conditions: 5.0 mg/ml peptide, FIG. 4
T4 construct: purchased Sigma-Aldrich
T4 sequence (P02454 152-1207 limits assumed): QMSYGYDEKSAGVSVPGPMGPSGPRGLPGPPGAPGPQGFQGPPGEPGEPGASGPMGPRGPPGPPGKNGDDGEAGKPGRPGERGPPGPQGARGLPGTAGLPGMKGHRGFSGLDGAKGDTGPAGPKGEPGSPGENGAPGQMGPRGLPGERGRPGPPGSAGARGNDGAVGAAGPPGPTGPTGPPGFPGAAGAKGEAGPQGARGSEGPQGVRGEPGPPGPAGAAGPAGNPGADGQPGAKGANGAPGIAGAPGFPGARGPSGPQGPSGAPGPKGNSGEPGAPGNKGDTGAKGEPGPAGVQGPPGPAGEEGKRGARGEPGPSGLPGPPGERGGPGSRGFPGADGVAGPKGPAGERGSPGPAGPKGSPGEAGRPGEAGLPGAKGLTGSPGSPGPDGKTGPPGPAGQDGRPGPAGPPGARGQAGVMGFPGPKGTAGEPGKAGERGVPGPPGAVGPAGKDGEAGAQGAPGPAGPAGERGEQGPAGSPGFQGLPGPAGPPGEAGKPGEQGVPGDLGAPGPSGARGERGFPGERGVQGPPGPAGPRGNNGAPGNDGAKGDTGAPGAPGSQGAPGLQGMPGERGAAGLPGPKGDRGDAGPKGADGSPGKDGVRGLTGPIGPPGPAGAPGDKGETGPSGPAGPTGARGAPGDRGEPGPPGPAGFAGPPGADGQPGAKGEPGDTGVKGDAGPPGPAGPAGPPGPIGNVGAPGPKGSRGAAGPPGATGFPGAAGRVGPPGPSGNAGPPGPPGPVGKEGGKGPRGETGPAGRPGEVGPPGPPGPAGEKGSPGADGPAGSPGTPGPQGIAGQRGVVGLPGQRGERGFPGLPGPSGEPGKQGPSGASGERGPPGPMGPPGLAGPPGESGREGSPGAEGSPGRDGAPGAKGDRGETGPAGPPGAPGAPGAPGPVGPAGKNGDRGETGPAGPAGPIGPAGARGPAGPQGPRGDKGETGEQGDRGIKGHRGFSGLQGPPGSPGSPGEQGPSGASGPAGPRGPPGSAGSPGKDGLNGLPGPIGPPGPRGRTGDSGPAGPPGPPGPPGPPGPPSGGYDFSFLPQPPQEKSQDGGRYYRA
T4 sequence (P02466 86-1125 limits assumed): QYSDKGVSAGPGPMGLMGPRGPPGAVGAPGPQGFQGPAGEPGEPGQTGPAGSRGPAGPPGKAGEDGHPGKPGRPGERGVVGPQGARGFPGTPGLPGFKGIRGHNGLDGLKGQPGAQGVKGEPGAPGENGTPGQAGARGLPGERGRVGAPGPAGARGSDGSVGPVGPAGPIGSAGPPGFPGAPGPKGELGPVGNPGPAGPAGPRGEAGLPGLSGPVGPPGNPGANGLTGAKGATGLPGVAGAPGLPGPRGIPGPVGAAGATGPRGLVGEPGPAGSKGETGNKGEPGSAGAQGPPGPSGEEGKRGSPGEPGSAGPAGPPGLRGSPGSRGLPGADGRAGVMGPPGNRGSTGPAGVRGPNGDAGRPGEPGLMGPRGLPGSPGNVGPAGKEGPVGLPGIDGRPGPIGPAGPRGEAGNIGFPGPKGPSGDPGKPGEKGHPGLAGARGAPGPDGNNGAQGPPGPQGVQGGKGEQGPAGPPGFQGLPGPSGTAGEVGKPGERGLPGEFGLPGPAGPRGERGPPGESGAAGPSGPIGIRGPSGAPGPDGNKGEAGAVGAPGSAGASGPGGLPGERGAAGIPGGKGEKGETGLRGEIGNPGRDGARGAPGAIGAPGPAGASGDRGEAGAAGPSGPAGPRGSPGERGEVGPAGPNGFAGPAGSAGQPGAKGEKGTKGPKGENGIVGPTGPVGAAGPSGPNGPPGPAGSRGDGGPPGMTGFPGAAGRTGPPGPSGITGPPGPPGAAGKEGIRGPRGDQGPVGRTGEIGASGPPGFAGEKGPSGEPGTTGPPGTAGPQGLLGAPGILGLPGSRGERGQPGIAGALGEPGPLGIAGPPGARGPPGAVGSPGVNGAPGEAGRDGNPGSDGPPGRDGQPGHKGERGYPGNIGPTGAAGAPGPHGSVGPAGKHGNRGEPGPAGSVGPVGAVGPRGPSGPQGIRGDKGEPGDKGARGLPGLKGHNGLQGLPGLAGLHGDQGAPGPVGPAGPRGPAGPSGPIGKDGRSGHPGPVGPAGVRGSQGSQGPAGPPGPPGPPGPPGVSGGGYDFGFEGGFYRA
Procedure: (§1) Peptides were incubated 24 hours at 37° C. on collagens I-IV, elastin, hyaluronic acid, and Geltrex. Coatings (10 pig/cm^2) were previously dried overnight in milli-Q water. Overall significance was assessed using analysis of variance, with Tukey's multiple comparison post-hoc analysis between ECM groups where n=4.
(§2) Biotinylated peptides were custom synthesized by ABI Scientific, Inc. (Sterling, VA). Uranyl acetate and TEM grids were from Ted Pella, Inc (Redding, CA). Unless specified otherwise, all water used in these experiments was Milli-Q grade. HA (˜1 MDa), collagen types I (rat), II (chicken), III (human), and IV (mouse), elastin (bovine), deuterium oxide (D2O), acetic acid-d4, sodium acetate-d3, 3-(Trimethylsilyl)propionic-2,2,3,3-d6 (DSS-D6) acid sodium salt, and 2,2,2-trifluoroethanol (TFE) and were obtained from Sigma-Aldrich (St. Louis, MO). Streptavidin (Alexa Fluor 488 conjugate) and Geltrex were obtained from Thermo Fisher Scientific Inc. (Waltham, MA). […]
(§3) Hyaluronic acid, collagens I, II, III, and IV, elastin, and Geltrex were coated onto 96-well black plates (medium binding affinity) at 10 μg/cm^2 and were dried in milli-Q water at room temperature. […] The plates were read with a fluorescence microplate reader for fluorescence intensity (Ex 490 nm, Em 525 nm). All data were normalized to the background fluorescence intensity of Streptavidin-488.

[2] = target: T1, elastin; experiment: ECM specificity binding test, elastin coating; design: species or system bovine; conditions: 5.0 mg/ml peptide, FIG. 4
Procedure: as §1
Biotinylated peptides were custom synthesized by ABI Scientific, Inc. (Sterling, VA). Uranyl acetate and TEM grids were from Ted Pella, Inc (Redding, CA). Unless specified otherwise, all water used in these experiments was Milli-Q grade. HA (˜1 MDa), collagen types I (rat), II (chicken), III (human), and IV (mouse), elastin (bovine), deuterium oxide (D2O), acetic acid-d4, sodium acetate-d3, 3-(Trimethylsilyl)propionic-2,2,3,3-d6 (DSS-D6) acid sodium salt, and 2,2,2-trifluoroethanol (TFE) and were obtained from Sigma-Aldrich (St. Louis, MO). Streptavidin (Alexa Fluor 488 conjugate) and Geltrex were obtained from Thermo Fisher Scientific Inc. (Waltham, MA). Sodium hyaluronate (5 and 60 KDa) was purchased from Lifecore Biomedical LLC (Chaska, MN). In reference to terminology, N and C termini is used to describe the amino terminal (N) and the carboxyl terminal (C) of the peptide. The biotinylated peptides are used in every experiment.
(§4) Hyaluronic acid, collagens I, II, III, and IV, elastin, and Geltrex were coated onto 96-well black plates (medium binding affinity) at 10 μg/cm^2 and were dried in milli-Q water at room temperature. N-termini biotinylated peptides were added to coated plates at 0, 1, 2.5, 5 and 10 mg/ml overnight at 37° C. in phosphate buffered saline (PBS), pH 7.4, after which the plates were washed three times with PBS. Fluorescent streptavidin-488 (4 μg/mL) was added to each well and incubated at 37° C. temperature for 24 hours, then thoroughly washed with PBS. The plates were read with a fluorescence microplate reader for fluorescence intensity (Ex 490 nm, Em 525 nm). All data were normalized to the background fluorescence intensity of Streptavidin-488.

[3] = Circular dichroism (CD) of peptides; type: physicochemical; conditions: 20 mM Sodium Cacodylate; for Ellipticity ratio (222 nm/208 nm) / Ellipticity 208 nm / Ellipticity 222 nm: 1.25 mg/mL; for Ellipticity 208 nm / Ellipticity 222 nm: CD data given as [θ]M×10^−3; for wavelength Minimum of CD profile: 5.0 mg/mL
Procedure: Data is presented in ellipticity ([θ]M×10^−3) as a function of spectral wavelength (λ).
Sodium cacodylate (SC), 20 mM pH 7.4, without and with 20% TFE was used to reduce phosphate related background signal and enhance detected structures. Circular dichroism (CD) data were collected in millidegrees, 0, and converted to molar ellipticity, [θ]M, and are expressed in units of deg×cm^2×dmol^−1. Scan speeds and digital integration times were 500 nm/min and 1 second, respectively. The data on the Y axis of the CD plots is [θ]M×10^−3. […] Consequently, CD signals are reported in the 190-260 nm range.

[4] = test system: extracellular matrix (ECM) components: Collagen type I, II, III and IV, elastin, hyaluronic acid and Geltrex; experiment: ECM specificity binding test, whole panel; conditions: 5.0 mg/ml peptide, FIG. 4
Procedure: as §1, §4

[5] = target: T5, collagen type IV (Mus musculus, UniProt P02463+P08122); experiment: ECM specificity binding test, collagen type IV coating; conditions: 5.0 mg/ml peptide, FIG. 4
T5 construct: purchased Sigma-Aldrich
Procedure: as §1, §2, §3

[6] = target: T2, elastin (bovine); experiment: plate assay: biotinylated peptide on dried ECM coating (10 ug/cm2), streptavidin-488 fluorescence
Procedure: (§5) Peptides were incubated 24 hours at 37° C. on collagens I-IV, elastin, hyaluronic acid, and Geltrex. Coatings (10 pig/cm²) were previously dried overnight in milli-Q water. Overall significance was assessed using analysis of variance, with Tukey's multiple comparison post-hoc analysis between ECM groups where n=4.
(§6) N-termini biotinylated peptides were added to coated plates at 0, 1, 2.5, 5 and 10 mg/ml overnight at 37° C. in phosphate buffered saline (PBS), pH 7.4, after which the plates were washed three times with PBS. Fluorescent streptavidin-488 (4 μg/mL) was added to each well and incubated at 37° C. temperature for 24 hours, then thoroughly washed with PBS. The plates were read with a fluorescence microplate reader for fluorescence intensity (Ex 490 nm, Em 525 nm). All data were normalized to the background fluorescence intensity of Streptavidin-488.

[7] = target: T3, collagen type III (human); experiment: as above
Procedure: as §5, §6

[8] = target: T6, collagen type IV (mouse) (mouse, UniProt P02463 28-1669; P08122 26-1707); experiment: as above
T6 construct: IV (mouse)'; Coated and dried on plates at 10 ug/cm2; also called collagen IV
Procedure: as §5, §6

[9] = target: T7, collagen type I (rat) (rat, UniProt P02454 152-1207; P02466 86-1125); experiment: as above
T7 construct: Coated and dried on 96-well plates at 10 ug/cm2; also called collagen I
T7 sequence (P02454 152-1207, chain 1 of 2): as the sequence (P02454 152-1207 limits assumed) above
T7 sequence (P02466 86-1125, chain 2 of 2): as the sequence (P02466 86-1125 limits assumed) above
Procedure: as §5, §6

Molecule | binding to collagen type I [1] | binding to elastin [2] | Ellipticity ratio (222 nm/208 nm) [3] | Ellipticity 208 nm [3] | Ellipticity 222 nm [3] | wavelength Minimum of CD profile [3] [nm] | Ellipticity ratio (222 nm/208 nm) ([3]; 20% TFE) | Ellipticity 208 nm ([3]; 20% TFE) | Ellipticity 222 nm ([3]; 20% TFE) | wavelength Minimum of CD profile ([3]; 20% TFE) [nm] | binding to the ECMs (for 17x-3: the ECMs other than hyaluronic acid) [4] | binding to collagen type IV [5] | binding result [6] | binding result [7] | binding result [8] | binding result [9]
KTKATVKIKNKQKSVNALKQKIVLLSK [Peptide 7c, 17x-3 variant] | predominantly | predominantly | 0.46 | −131 | −60.9 | 225 | 0.89 | −290 | −259 | 224 | moderate binding | predominantly |  |  |  | 
B1 |  |  |  |  |  |  |  |  |  |  |  |  | no binding (tested: 5.0 mg/ml) | no binding (tested: 5.0 mg/ml) | no binding (tested: 5.0 mg/ml) | no binding (tested: 5.0 mg/ml)
B2 |  |  |  |  |  |  |  |  |  |  |  |  | no binding (tested: 5.0 mg/ml) | no binding (tested: 5.0 mg/ml) | no binding (tested: 5.0 mg/ml) | no binding (tested: 5.0 mg/ml)
